Experimental data taken from a protein production outcome set (Wang et al. 2014).

Assay: label from the status in PepcDB records

| Sequence | protein production |
| --- | --- |
| MILIKKFATVASGTLMSRIFGFVREMLMAAALGTGPVSDAFNAAFRFPNTFRRFFAEGAFNAAFVPLFAKRITEDGQETACKFAEEVFGVLFSLLLLLTIAMELSMPFLVRTIIAPGFAEDATKFNATIHFTAIMFPYLTCMSLAAMMGGMLNALRRYFIAAIAPLFLNIILISVLAYAWIYQLDTWHIGLNLSWGVLAAGLLQLTLIAAALRQSGMKIFLRRPRFSSNVRKLLTLAFPAAITGGITQINLLINTNIASSQSGAVSSLMYADRLYQLPLGVIAIAIATVLLPELTRALRSKNHKETHNLQNRSIELTLLLTLPASVAFLILSTPIVSLLFERGQFTSLSTHYVAQLLKLYGLGLPAFVLIKIFIPNFFAHEDTKTPMIITGICVFINISLALILFPILSARGIVIAEITSGWMNALLLWTILIQRGYWKYDIQLIKRITCLIITTLLNTIALYYVFDVIDFLSFPLSSQASFFLRASTLAGIMVAILLVHCFAYFLLDTRSFFLTLKNFKKRL | failed |
| MREAIIKRAAKELKEGMYVNLGIGLPTLVANEVSGMNIVFQSENGLLGIGAYPLEGSVDADLINAGKETITVVPGASFFNSADSFAMIRGGHIDLAILGGMEVSQNGDLANWMIPKKLIKGMGGAMDLVHGAKKVIVIMEHCNKYGESKVKKECSLPLTGKGVVHQLITDLAVFEFSNNAMKLVELQEGVSLDQVKEKTEAEFEVRL | failed |
| MEPWKQCAQWLIHCKVLPTNHRVTWDSAQVFDLAQTLRDGVLLCQLLNNLRAHSINLKEINLRPQMSQFLCLKNIRTFLTACCETFGMRKSELFEAFDLFDVRDFGKVIETLSRLSRTPIALATGIRPFPTEESINDEDIYKGLPDLIDETLVEDEEDL | failed |
| MNDIYFDDNRHNWNDRARLHEEAGYGIDKLLSDRDYITPEVEQDKDLIGDLTNKDVLHLQCHLGTDTISLARLGARRVLGLDLSDESLRRARNLAKKAGVSIDFIEGNVYDAREVIVGDFDLIYTSLGVLCWLPDITAWGRVVASLLKSGGKFIIRDDHPMFMTIGEDVRDGFKIEQPYFEQSQPMTWEDEGSYIETDASFEKIKNTRNHQWNHALSEIIMALINAGLQIDLVSESQHAAWNIWPHLMEKCSDGSYRLKKHSEVLPLQFLISAHKPEA | failed |
| MAGEKAQKKGKEKWKEKTWYTVESPPYLGSKEVTVALGEDPESMVNRIVEVPISDLTGNFKKSNEKALFRITGCEGTKCKTIFIGHYIGDDYIRRLVRRRKERIDIIEDVKTSDGSIITVKIVVVSDGKLTNTKKSEIRKALTSFIVSKGSQLSYADFVRYLIGDDSYNDMVEATKNIYPLRKIEIRKSELVSLSGMQEPQKNEPAPGGEAIAQNLEHHHHHH | not failed |
| MTSALNRLQPLNGNNMKLKTLLLFVALIQSVVSMAQQDWKGDYTRAKQVYQLQKYEIAMEYFLPVTSPDAANPYASYAQYYYSLSAYKAGKYNEARQMLLQLINRDPNWKQISEAHYLLAGVYFELKQYRFGMTSLTFVQGMESSVTTFRQSYYAKIAPLDTLIKLQRVYSSDKELAKALFNQLAAYPVNSKNNMLYEYLAQEFKFTKLNRTVTYVTKTEYHVAVILPFNLSESNSENYKSGYAYEMYQGILTAVDSLKEDGVTIKIHTYDADRDVMKIQAILNYPEMKGMDLIIGPLFPSLIPYVTNFGELNNIPVINPISFNSNIIENKTQTLLFQPTLESIAGQVSSFAKEKFVYRKNSSKDNDLKPKNNVLIFYSTELKDSLLAVYYRDSLQVKGFKVSKFVKVTKENIGTVGKIFSDSISLLTTSHVFVASGEPVLASNIVSALEISRQNVPVITKSDWLDINNQTYEQFERRNIYIIYPDYFAFYTDAYRSFKAAYIKKYNVYPSKYTIIGYELMSLVGDKMRTAGTGYFNLMRTSPVSKGHFTAGYDFSKKPCNNYVPIYYFSDLKLTLANPFDEK | failed |
| MELWTHPTPAAPRLATSTRTRWRRTSRCSQPWATTPGTNSSDASRTPTTASASATSKPQSASARARSVRRSPDCTPRAWSRGARKDRGATTNRPRRPKFCSKRSTTCEATMSNDNETMVADRDPEETREMVRERYAGIATSGQDCCGDVGLDVSGDGGCCSDETEASGSERLGYDADDVASVADGADLGLGCGNPKAFAAMAPGETVLDLGSGAGFDCFLAAQEVGPDGHVIGVDMTPEMISKARENVAKNDAENVEFRLGEIGHLPVADESVNVVISNCVVNLAPEKQRVFDDTYRVLRPGGRVAISDVVQTAPFPDDVQMDPDSLTGCVAGASTVDDLKAMLDEAGFEAVEIAPKDESTEFISDWDADRDLGEYLVSATIEARKPARDD | failed |
